These results are taken from the supplement of paper PMC10567573.

B1: HESX1 (parent)
chain: QKKDCVPLMKPHRPWADTCSSSGK
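Also: lentivirally expressed fusions sorted by FACS into six bins by GFP to DsRed ratio, PSI derived from sequencing read proportions per bin multiplied by bin number.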

The data set covers variants of B1. The data set can be described thus: protein stability index of a GFP-peptide fusion (GPS, HEK-293T) (PSI 1-6); higher = more stable. The note with it: c terminus: a fixed tail appended.
In the case of QKKDCVPLMKYHRPWADTCSSSGK, the protein stability index is 2.55. With QKKDCVPLMKTHRPWADTCSSSGK, the protein stability index amounted to 4.68. As to QKKDCVPLMKSHRPWADTCSSSGK, the protein stability index turned out to be 3.64. QKKDCVPLMKQHRPWADTCSSSGK: the protein stability index amounted to 2.74.

As to QKKDCVPLMKIHRPWADTCSSSGK, the protein stability index worked out at 3.42.

With QKKDCVPLMKLHRPWADTCSSSGK, the protein stability index stood at 2.85. Regarding QKKDCVPLMKHHRPWADTCSSSGK, the protein stability index came to 3.51.

Regarding QKKDCVPLMKPHRNWADTCSSSGK, the protein stability index amounted to 2.72. To QKKDCVPLMKPHRMWADTCSSSGK belongs 2.84; to QKKDCVPLMKPHRLWADTCSSSGK, 3.06; to QKKDCVPLMKPHRCWADTCSSSGK, 2.36.

For QKKDCVPLMKPHRQWADTCSSSGK, the protein stability index worked out at 3.88. For QKKDCVPLMKPHRGWADTCSSSGK, the protein stability index worked out at 3.96. In the case of QKKDCVPLMKPHREWADTCSSSGK, the protein stability index came to 4.12. To QKKDCVPLMKPHRKWADTCSSSGK belongs 2.81. For the variant QKKDCVPLMKPHRFWADTCSSSGK, the protein stability index was 3.1. As to QKKDCVPLMKPHRWWADTCSSSGK, the protein stability index is 2.96.

For the variant QKKDCVPLMKPHRAWADTCSSSGK, the protein stability index came out at 2.52. With QKKDCVPLMKPHRDWADTCSSSGK, the protein stability index worked out at 3.21. QKKDCVPLMKPHRHWADTCSSSGK: the protein stability index worked out at 3.95. On to QKKDCVPLMKPHRVWADTCSSSGK, for which the protein stability index was 2.23.

As for QKKDCVPLMKPHRYWADTCSSSGK, the protein stability index was 2.98. The same measure for QKKDCVPLMKPHRIWADTCSSSGK: 3.26; for QKKDCVPLMKPHRSWADTCSSSGK: 3.1. Consider QKKDCVPLMKPHRPDADTCSSSGK, for which the protein stability index amounted to 4.81. For QKKDCVPLMKPHRPNADTCSSSGK, the protein stability index came out at 4.79. The same measure for QKKDCVPLMKPHRPTADTCSSSGK: 5.26. For the variant QKKDCVPLMKPHRPEADTCSSSGK, the protein stability index is 5.37.

With QKKDCVPLMKPHRPLADTCSSSGK, the protein stability index was 4.66. With QKKDCVPLMKPHRPMADTCSSSGK, the protein stability index worked out at 4.57. To QKKDCVPLMKPHRPQADTCSSSGK belongs 4.79; to QKKDCVPLMKPHRPAADTCSSSGK, 4.62; to QKKDCVPLMKPHRPCADTCSSSGK, 4.02.

Consider QKKDCVPLMKPHRPSADTCSSSGK, for which the protein stability index was determined as 4.8. To QKKDCVPLMKPHRPKADTCSSSGK belongs 4.92; to QKKDCVPLMKPHRPHADTCSSSGK, 4.64; to QKKDCVPLMKPHRPYADTCSSSGK, 4.39.

As for QKKDCVPLMKPHRPIADTCSSSGK, the protein stability index turned out to be 4.26. With QKKDCVPLMKPHRPGADTCSSSGK, the protein stability index was 4.96. In the case of QKKDCVPLMKPHRPPADTCSSSGK, the protein stability index is 4.35. To QKKDCVPLMKPHRPFADTCSSSGK belongs 3.47; to QKKDCVPLTKPHRPWADTCSSSGK, 3.77. Take QKKDCVPLHKPHRPWADTCSSSGK: the protein stability index stood at 3.89. Take QKKDCVPLEKPHRPWADTCSSSGK: the protein stability index is 4.04. Regarding QKKDCVPLAKPHRPWADTCSSSGK, the protein stability index amounted to 3.69. QKKDCVPLLKPHRPWADTCSSSGK: the protein stability index is 3.41. QKKDCVPLGKPHRPWADTCSSSGK: the protein stability index worked out at 4.27. Regarding QKKDCVPLYKPHRPWADTCSSSGK, the protein stability index worked out at 3.2.

For the variant QKKDCVPLSKPHRPWADTCSSSGK, the protein stability index came to 2.93. Consider QKKDCVPLWKPHRPWADTCSSSGK, for which the protein stability index is 3. To QKKDCVPLPKPHRPWADTCSSSGK belongs 3.51.

In the case of QKKDCVPLKKPHRPWADTCSSSGK, the protein stability index stood at 3.08. Turning to QKKDCVPLDKPHRPWADTCSSSGK, the protein stability index came to 4.08.

QKKDCVPLIKPHRPWADTCSSSGK: the protein stability index is 3.23. For QKKDCVPLFKPHRPWADTCSSSGK, the protein stability index worked out at 2.85. The same measure for QKKDCVPLRKPHRPWADTCSSSGK: 3.13. With QKKDCVPLNKPHRPWADTCSSSGK, the protein stability index is 3.58. As for QKKDCVPLCKPHRPWADTCSSSGK, the protein stability index is 3.76. The same measure for QKKDCVPEMKPHRPWADTCSSSGK: 3.58. With QKKDCVPPMKPHRPWADTCSSSGK, the protein stability index turned out to be 3.49. As for QKKDCVPVMKPHRPWADTCSSSGK, the protein stability index worked out at 3.28. For the variant QKKDCVPQMKPHRPWADTCSSSGK, the protein stability index was 4.1.

Regarding QKKDCVPHMKPHRPWADTCSSSGK, the protein stability index amounted to 2.31. Regarding QKKDCVPCMKPHRPWADTCSSSGK, the protein stability index is 2.7.

For the variant QKKDCVPSMKPHRPWADTCSSSGK, the protein stability index turned out to be 3.86. In the case of QKKDCVPIMKPHRPWADTCSSSGK, the protein stability index was determined as 2.82.

For the variant QKKDCVPKMKPHRPWADTCSSSGK, the protein stability index came out at 3.73. Take QKKDCVPDMKPHRPWADTCSSSGK: the protein stability index worked out at 3.93. Consider QKKDCVPFMKPHRPWADTCSSSGK, for which the protein stability index turned out to be 3.14.

As for QKKDCVPNMKPHRPWADTCSSSGK, the protein stability index was 3.19. As to QKKDCVPGMKPHRPWADTCSSSGK, the protein stability index was determined as 3.18.

Consider QKKDCVPWMKPHRPWADTCSSSGK, for which the protein stability index was 3.47. On to QKKDCVPRMKPHRPWADTCSSSGK, for which the protein stability index turned out to be 2.59. As for QKKDCVPTMKPHRPWADTCSSSGK, the protein stability index came to 2.82.

Consider QKKDCVPAMKPHRPWADTCSSSGK, for which the protein stability index stood at 3.29. To QKKDCVPMMKPHRPWADTCSSSGK belongs 3; to QKKDCVPYMKPHRPWADTCSSSGK, 3.78. For the variant QKKDCVPLMKPHHPWADTCSSSGK, the protein stability index is 3.6. As for QKKDCVPLMKPHKPWADTCSSSGK, the protein stability index stood at 3.5. Regarding QKKDCVPLMKPHTPWADTCSSSGK, the protein stability index was found to be 3.33. As for QKKDCVPLMKPHEPWADTCSSSGK, the protein stability index was 4.97.

On to QKKDCVPLMKPHMPWADTCSSSGK, for which the protein stability index was determined as 3.06. Turning to QKKDCVPLMKPHIPWADTCSSSGK, the protein stability index was determined as 3.66.

In the case of QKKDCVPLMKPHPPWADTCSSSGK, the protein stability index was 3.25. The same measure for QKKDCVPLMKPHFPWADTCSSSGK: 3.75. On to QKKDCVPLMKPHQPWADTCSSSGK, for which the protein stability index worked out at 4.18. With QKKDCVPLMKPHCPWADTCSSSGK, the protein stability index was determined as 3.26. QKKDCVPLMKPHGPWADTCSSSGK: the protein stability index was 4.21.

For QKKDCVPLMKPHDPWADTCSSSGK, the protein stability index turned out to be 4.11. With QKKDCVPLMKPHYPWADTCSSSGK, the protein stability index turned out to be 3.64. With QKKDCVPLMKPHVPWADTCSSSGK, the protein stability index was 3.11. In the case of QKKDCVPLMKPHLPWADTCSSSGK, the protein stability index was found to be 3.4. In the case of QKKDCVPLMKPHWPWADTCSSSGK, the protein stability index is 3.4.

Regarding QKKDCVPLMKPHNPWADTCSSSGK, the protein stability index is 4.15.
